Source: publication PMC4007306 (Archives of biochemistry and biophysics, 2013)

Columns and labels:
[1] = target: S-adenosylmethionine synthetase (AdoMet synthetase, MAT) from Neisseria meningitidis WUE2594 (Neisseria meningitidis WUE2594); assay: native gel or EMSA
[2] = target: S-adenosylmethionine synthetase (AdoMet synthetase, MAT) from Neisseria meningitidis WUE2594 (Neisseria meningitidis WUE2594); assay: dynamic light scattering
[3] = target: T1, AdoMet synthetase (MAT, MetK) (Pseudomonas aeruginosa, UniProt Q9I5Z0); assay: coupled enzyme assay, Dixon plot; assay type: biochemical
T1 sequence (Q9I5Z0 1-396): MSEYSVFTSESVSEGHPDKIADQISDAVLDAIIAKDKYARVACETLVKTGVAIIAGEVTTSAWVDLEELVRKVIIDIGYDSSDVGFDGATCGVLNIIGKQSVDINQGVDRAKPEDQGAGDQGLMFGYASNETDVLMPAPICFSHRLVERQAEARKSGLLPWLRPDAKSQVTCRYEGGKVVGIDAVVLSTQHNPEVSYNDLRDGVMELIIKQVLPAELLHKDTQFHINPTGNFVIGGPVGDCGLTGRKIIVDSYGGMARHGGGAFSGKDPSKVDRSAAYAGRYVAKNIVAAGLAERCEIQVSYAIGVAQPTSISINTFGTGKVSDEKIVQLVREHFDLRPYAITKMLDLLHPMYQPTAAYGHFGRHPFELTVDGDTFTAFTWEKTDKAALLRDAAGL

[4] = target: AdoMet synthetase (MAT, MetK); assay: coupled enzyme assay, Dixon plot; assay type: biochemical, Campylobacter jejuni
[5] = substrate: CCOC(=O)[C@@H](N)CCSC; assay: coupled pyrophosphate enzyme assay, alternative substrate kinetics; assay type: biochemical, Escherichia coli; settings: MgATP L-methionine binding site
[6] = substrate: COC(=O)[C@@H](N)CCSC; assay: as above; assay type: biochemical, Escherichia coli; settings: MgATP L-methionine binding site
[7] = substrate: CSCC[C@H](N)C(=O)O; assay: coupled pyrophosphate enzyme assay, steady-state kinetics; assay type: biochemical, Pseudomonas aeruginosa; settings: MgATP L-methionine binding site of the active site
dynamic light scattering = target: the molecule itself; assay: dynamic light scattering

Molecule: S-adenosylmethionine synthetase (AdoMet synthetase, MAT) from Neisseria meningitidis WUE2594 (enzyme)
- stoichiometry N [1]: 4
- stoichiometry N [2]: 4

Molecule: NC(=O)SC[C@H](N)C(=O)O [S-carbamyl-L-cysteine]
- Ki [3]: ~4 mM

Molecule: CSCC[C@H](N)CC(=O)O [β-methionine, (R)-3-amino-5-(methylthio)pentanoic acid]
- Ki [4]: ~7 mM

B1: AdoMet synthetase (MAT, MetK) (Escherichia coli K-12) (protein)
chain: AKHLFTSESVSEGHPDKIADQISDAVLDAILEQDPKARVACETYVKTGMVLVGGEITTSAWVDIEEITRNTVREIGYVHSDMGFDANSCAVLSAIGKQSPDINQGVDRADPLEQGAGDQGLMFGYATNETDVLMPAPITYAHRLVQRQAEVRKNGTLPWLRPDAKSQVTFQYDDGKIVGIDAVVLSTQHSEEIDQKSLQEAVMEEIIKPILPAEWLTSATKFFINPTGRFVIGGPMGDCGLTGRKIIVDTYGGMARHGGGAFSGKDPSKVDRSAAYAARYVAKNIVAAGLADRCEIQVSYAIGVAEPTSIMVETFGTEKVPSEQLTLLVREFFDLRPYGLIQMLDLLHPIYKETAAYGHFGREHFPWEKTDKAQLLRDAAGLK
- Km [5]: 0.12 ± 0.01 mM
- Km [6]: 0.17 ± 0.05 mM

B2: S-adenosylmethionine synthetase (AdoMet synthetase, MAT) from Pseudomonas aeruginosa PA01 (enzyme, UniProt B7V4D3 1-396, looked up)
chain: T1 sequence (Q9I5Z0 1-396)
- Km [7]: 0.040 ± 0.005 mM
- stoichiometry N (dynamic light scattering): 4

B3: S-adenosylmethionine synthetase (AdoMet synthetase, MAT) from Escherichia coli K12 (enzyme, UniProt B1XFA4 1-384, looked up)
chain: MAKHLFTSESVSEGHPDKIADQISDAVLDAILEQDPKARVACETYVKTGMVLVGGEITTSAWVDIEEITRNTVREIGYVHSDMGFDANSCAVLSAIGKQSPDINQGVDRADPLEQGAGDQGLMFGYATNETDVLMPAPITYAHRLVQRQAEVRKNGTLPWLRPDAKSQVTFQYDDGKIVGIDAVVLSTQHSEEIDQKSLQEAVMEEIIKPILPAEWLTSATKFFINPTGRFVIGGPMGDCGLTGRKIIVDTYGGMARHGGGAFSGKDPSKVDRSAAYAARYVAKNIVAAGLADRCEIQVSYAIGVAEPTSIMVETFGTEKVPSEQLTLLVREFFDLRPYGLIQMLDLLHPIYKETAAYGHFGREHFPWEKTDKAQLLRDAAGLK
- stoichiometry N (dynamic light scattering): 4

B4: S-adenosylmethionine synthetase (AdoMet synthetase, MAT) from Campylobacter jejuni 81-176 (enzyme, UniProt Q0P9F8 1-398, looked up)
chain: MYLFTSEVVSAGHPDKCADIIADTIVDILLKNDKNSRVASEVFVAGNKVVIGGEVKSNHKLSKADYDNLVKDVLKNIGYDGAGHFSKEQCLHPDEVDVMVFLNEQSPDINQGVDQEDGETGAGDQGIMFGFASCEAEEYMPAAISYARMLCDRVYAYAKANPHELGVDIKTQVTIDYGTKANFENCKPQSIHTIVVSAPCVESMKIEDLRSLVMKLILDSNLPKELFDPNKTRILINPTGKYVNHSSLHDSGLTGRKLIVDSFGGYSPIGGGAQSSKDYTKVDRSGLYAGRWLAKNIVAAGLAKKCIVQLSYAIGVAKPTSVSVDCMGTNTSVNDDVLSDFVMQNFSLTPNWIRDKFHLDKPSKETFLYADVAARGQVGQKDYPWEKLDALEQFKKLL
- stoichiometry N (dynamic light scattering): 2
